The assay addresses human IL-17A (human) (UniProt Q16552). Kind of assay: BLI Octet Red 96; Fab on anti-FABCH1 sensors, IL-17A 30 µg/ml as analyte, 1:1 model.

human IL-17A (human), sequence (Q16552 20-155 limits assumed): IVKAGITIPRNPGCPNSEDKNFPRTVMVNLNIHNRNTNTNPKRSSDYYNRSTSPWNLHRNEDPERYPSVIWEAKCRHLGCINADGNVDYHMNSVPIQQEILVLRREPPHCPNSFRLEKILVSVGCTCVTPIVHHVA

B1: 3VHHVK4B11 Fab (Fab, part only; not given: Light chain VK4B11, tags, not shown: small tags and cut ends)
heavy: QVQLQQSGGGSVQAGGSLRLSCAASGGTFATSPMGWLRQAPGKEREFVAAISPSGGDRIYDDSVKGRFTISRDNAGYFIYLQMNSLKPEDTARYYCAVRRRFDGTSYYTGDYDSWGQGTLVTVSS
For the molecule B1, the koff was < 2.27e-06 s⁻¹.

The term koff denotes the rate constant with which the complex falls apart. Read a low koff as a long-lived complex.
